Results published in US20260216326A1 (PROMETHEUS BIOSCIENCES, published 2026).

T1: human TL1A (human, UniProt O95150 72-251, limits assumed)
T1 construct: also called tumor necrosis factor-like cytokine 1A; TNFSF15
T1 sequence (looked up): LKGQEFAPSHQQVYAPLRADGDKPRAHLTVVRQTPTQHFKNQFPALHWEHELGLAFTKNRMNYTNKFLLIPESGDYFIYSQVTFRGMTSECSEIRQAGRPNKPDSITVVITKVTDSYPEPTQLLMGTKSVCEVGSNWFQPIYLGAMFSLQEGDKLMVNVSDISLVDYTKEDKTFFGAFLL


Target: T1, human TL1A
Test: ELISA titration on plate-coated human TL1A, unpurified culture supernatant

Row | Binder | Kd
1 | A168 (antibody, IgG1, V domains shown) VH: QVQLVQSGAEVKKPGASVKVSCKASGFDIQDTYMHWVKQRPGQGLEWIGRIDPASGHTKYDPKFQVRATMTRDTSTSTAYLELSSLRSEDTAVYYCARSGGLPDVWGQGTTVTVSS VL: EIVLTQSPGTLSLSPGERATLSCRASSSVSYMYWYQQKPGQAPRPWIYATSNLASGIPDRFSGSGSGTDFTLTISRLEPEDFAVYYCQQWEGNPRTFGGGTKLEIK | 0.062 nM
2 | A175 (antibody, IgG1, V domains shown) VH: QVQLVQSGAEVKKPGASVKVSCKASGFDIQDTYMHWVKQAPGQGLEWMGRIDPASGHIKYDPKFQGRVTMTRDTSTSTVYMELSSLRSEDTAVYYCARSGGLPDWWGQGTTVTVSS VL: EIVLTQSPGTLSLSPGERATLSCRASSSVSYMYWYQQKPGQAPRPLIYATSNLASGIPDRFSGSGSGTDFTLTISRLEPEDFAVYYCQQWEGNPRTFGGGTKLEIK | 0.045 nM
3 | A176 (antibody, IgG1, V domains shown) VH: QVQLVQSGAEVKKPGASVKVSCKASGFDIQDTYMHWVRQAPGQGLEWMGRIDPASGHIKYDPKFQGRVTMTRDTSTSTAYMELSSLRSEDTAVYYCARSGGLPDWWGQGTTVTVSS VL: EIVLTQSPGTLSLSPGERATLSCRASSSVSYMYWYQQKPGQAPRPLIYATSNLASGIPDRFSGSGSGTDFTLTISRLEPEDFAVYYCQQWEGNPRTFGGGTKLEIK | 0.048 nM
4 | A173 (antibody, IgG1, V domains shown) VH: QVQLVQSGAEVKKPGASVKVSCKASGFDIQDTYMHWVKQAPGQGLEWMGRIEPASGHIKYDPKFQGRATMTRDTSTSTVYMELSSLRSEDTAVYYCARSGGLPDWWGQGTTVTVSS VL: EIVLTQSPGTLSLSPGERATLSCRASSSVSYMYWYQQKPGQAPRPWIYATSNLASGIPDRFSGSGSGTDFTLTISRLEPEDFAVYYCQQWEGNPRTFGGGTKLEIK | 0.04 nM
5 | A170 (antibody, IgG1, V domains shown) VH: QVQLVQSGAEVKKPGASVKVSCKASGFDIQDTYMHWVRQAPGQGLEWMGRIDPASGHIKYDPKFQGRVTMTRDTSTSTAYMELSSLRSEDTAVYYCARSGGLPDWWGQGTTVTVSS VL: EIVLTQSPGTLSLSPGERATLSCRASSSVSYMYWYQQKPGQAPRPWIYATSNLASGIPDRFSGSGSGTDFTLTISRLEPEDFAVYYCQQWEGNPRTFGGGTKLEIK | 0.049 nM
6 | A169 (antibody, IgG1, V domains shown) VH: QVQLVQSGAEVKKPGASVKVSCKASGFDIQDTYMHWVKQAPGQGLEWMGRIDPASGHIKYDPKFQGRVTMTRDTSTSTVYMELSSLRSEDTAVYYCARSGGLPDWWGQGTTVTVSS VL: EIVLTQSPGTLSLSPGERATLSCRASSSVSYMYWYQQKPGQAPRPWIYATSNLASGIPDRFSGSGSGTDFTLTISRLEPEDFAVYYCQQWEGNPRTFGGGTKLEIK | 0.047 nM
7 | A166 (antibody, IgG1, V domains shown) VH: QVQLVQSGAEVKKPGASVKVSCKASGFDIQDTYMHWVKQRPGQGLEWIGRIDPASGHTKYDPKFQVRVTMTTDTSTSTAYLELSSLRSEDTAVYYCARSGGLPDVWGQGTTVTVSS VL: EIVLTQSPGTLSLSPGERATLSCRASSSVSYMYWYQQKPGQAPRPWIYATSNLASGIPDRFSGSGSGTDFTLTISRLEPEDFAVYYCQQWEGNPRTFGGGTKLEIK | 0.057 nM
8 | A167 (antibody, IgG1, V domains shown) VH: QVQLVQSGAEVKKPGASVKVSCKASGFDIQDTYMHWVKQRPGQGLEWIGRIDPASGHTKYDPKFQVRVTITRDTSTSTAYLELSSLRSEDTAVYYCARSGGLPDVWGQGTTVTVSS VL: EIVLTQSPGTLSLSPGERATLSCRASSSVSYMYWYQQKPGQAPRPWIYATSNLASGIPDRFSGSGSGTDFTLTISRLEPEDFAVYYCQQWEGNPRTFGGGTKLEIK | 0.042 nM

Continued by falling Kd, values first:

Row | Kd | Binder
9 | 0.059 nM | A165 (antibody, IgG1, V domains shown) VH: QVQLVQSGAEVKKPGASVKVSCKASGFDIQDTYMHWVRQAPGQGLEWIGRIDPASGHTKYDPKFQVRATITTDTSTSTAYLELSSLRSEDTAVYYCARSGGLPDVWGQGTTVTVSS VL: EIVLTQSPGTLSLSPGERATLSCRASSSVSYMYWYQQKPGQAPRPWIYATSNLASGIPDRFSGSGSGTDFTLTISRLEPEDFAVYYCQQWEGNPRTFGGGTKLEIK
10 | 0.058 nM | A164 (antibody, IgG1, V domains shown) VH: QVQLVQSGAEVKKPGASVKVSCKASGFDIQDTYMHWVRQRPGQGLEWMGRIDPASGHTKYDPKFQVRVTMTTDTSTSTAYLELSSLRSEDTAVYYCARSGGLPDVWGQGTTVTVSS VL: EIVLTQSPGTLSLSPGERATLSCRASSSVSYMYWYQQKPGQAPRLLIYATSNLASGIPDRFSGSGSGTDFTLTISRLEPEDFAVYYCQQWKGNPRTFGGGTKLEIK
11 | 0.052 nM | A177 (antibody, IgG1, V domains shown) VH: QVQLVQSGAEVKKPGASVKVSCKASGFDIQDTYMHWVRQAPGQGLEWMGRIDPASGHIKYDPKFQGRATITTDTSTSTVYMELSSLRSEDTAVYYCARSGGLPDWWGQGTTVTVSS VL: EIVLTQSPGTLSLSPGERATLSCRASSSVSYMYWYQQKPGQAPRPLIYATSNLASGIPDRFSGSGSGTDFTLTISRLEPEDFAVYYCQQWEGNPRTFGGGTKLEIK
12 | 0.051 nM | A163 (antibody, IgG1, V domains shown) VH: QVQLVQSGAEVKKPGASVKVSCKASGFDIQDTYMHWVRQRPGQGLEWMGRIDPASGHTKYDPKFQVRVTITTDTSTSTAYMELSSLRSEDTAVYYCARSGGLPDVWGQGTTVTVSS VL: EIVLTQSPGTLSLSPGERATLSCRASSSVSYMYWYQQKPGQAPRLLIYATSNLASGIPDRFSGSGSGTDFTLTISRLEPEDFAVYYCQQWKGNPRTFGGGTKLEIK
13 | 0.05 nM | A171 (antibody, IgG1, V domains shown) VH: QVQLVQSGAEVKKPGASVKVSCKASGFDIQDTYMHWVRQAPGQGLEWMGRIDPASGHIKYDPKFQGRATITTDTSTSTVYMELSSLRSEDTAVYYCARSGGLPDWWGQGTTVTVSS VL: EIVLTQSPGTLSLSPGERATLSCRASSSVSYMYWYQQKPGQAPRPWIYATSNLASGIPDRFSGSGSGTDFTLTISRLEPEDFAVYYCQQWEGNPRTFGGGTKLEIK
14 | 0.043 nM | A174 (antibody, IgG1, V domains shown) VH: QVQLVQSGAEVKKPGASVKVSCKASGFDIQDTYMHWVRQAPGQGLEWMGRIEPASGHIKYDPKFQGRATMTRDTSTSTAYMELSSLRSEDTAVYYCARSGGLPDWWGQGTTVTVSS VL: EIVLTQSPGTLSLSPGERATLSCRASSSVSYMYWYQQKPGQAPRPWIYATSNLASGIPDRFSGSGSGTDFTLTISRLEPEDFAVYYCQQWEGNPRTFGGGTKLEIK
15 | 0.043 nM | A178 (antibody, IgG1, V domains shown) VH: QVQLVQSGAEVKKPGASVKVSCKASGFDIQDTYMHWVRQAPGQGLEWMGRIDPASGHIKYDPKFQGRATMTRDTSTSTVYMELSSLRSEDTAVYYCARSGGLPDWWGQGTTVTVSS VL: EIVLTQSPGTLSLSPGERATLSCRASSSVSYMYWYQQKPGQAPRPLIYATSNLASGIPDRFSGSGSGTDFTLTISRLEPEDFAVYYCQQWEGNPRTFGGGTKLEIK
16 | 0.04 nM | A172 (antibody, IgG1, V domains shown) VH: QVQLVQSGAEVKKPGASVKVSCKASGFDIQDTYMHWVRQAPGQGLEWMGRIDPASGHIKYDPKFQGRATMTRDTSTSTVYMELSSLRSEDTAVYYCARSGGLPDWWGQGTTVTVSS VL: EIVLTQSPGTLSLSPGERATLSCRASSSVSYMYWYQQKPGQAPRPWIYATSNLASGIPDRFSGSGSGTDFTLTISRLEPEDFAVYYCQQWEGNPRTFGGGTKLEIK
